Results: US20150344570A1 (published 2015)

T1: FcγRIIb extracellular domain with C-terminal His tag (human, UniProt P31994 43-217)
T1 construct: extracellular domain; Expressed in FreeStyle293 cells; analyte in the SPR assay; also called FcgRIIb; 2b
T1 sequence (looked up): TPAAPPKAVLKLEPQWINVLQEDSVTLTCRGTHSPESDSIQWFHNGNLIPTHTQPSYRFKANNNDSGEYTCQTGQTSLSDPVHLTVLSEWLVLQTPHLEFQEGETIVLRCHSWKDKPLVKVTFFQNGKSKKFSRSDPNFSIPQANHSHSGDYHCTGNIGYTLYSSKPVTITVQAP

T2: FcγRIIa R (human, UniProt P12318 34-217)
T2 construct: extracellular domain; also called FcgRIIa R; FcγRIIa type R; not shown: His tag at the C terminus
T2 sequence (looked up): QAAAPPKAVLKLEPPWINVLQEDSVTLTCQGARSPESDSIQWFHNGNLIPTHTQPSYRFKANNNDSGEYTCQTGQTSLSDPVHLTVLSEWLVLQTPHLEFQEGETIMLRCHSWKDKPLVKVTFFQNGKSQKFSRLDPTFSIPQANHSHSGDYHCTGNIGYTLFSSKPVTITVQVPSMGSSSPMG

T3: FcγRIIb (human, UniProt P31994 43-217)
T3 construct: extracellular domain; also called FcgRIIb; 2b; not shown: His tag at the C terminus
T3 sequence (looked up): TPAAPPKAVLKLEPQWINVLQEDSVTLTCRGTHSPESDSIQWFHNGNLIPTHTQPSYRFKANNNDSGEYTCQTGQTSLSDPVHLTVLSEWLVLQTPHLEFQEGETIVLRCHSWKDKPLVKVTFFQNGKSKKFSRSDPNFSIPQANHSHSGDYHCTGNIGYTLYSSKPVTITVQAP


Experiments:
[1] = molecular target: T4, FcγRIa extracellular domain with C-terminal His tag (human, UniProt P12314 16-292); experiment: SPR (Biacore), relative binding, HeCon Ab = 100
T4 construct: extracellular domain; Expressed in FreeStyle293 cells; analyte in the SPR assay; also called FcgRI; 1a
T4 sequence (P12314 16-292): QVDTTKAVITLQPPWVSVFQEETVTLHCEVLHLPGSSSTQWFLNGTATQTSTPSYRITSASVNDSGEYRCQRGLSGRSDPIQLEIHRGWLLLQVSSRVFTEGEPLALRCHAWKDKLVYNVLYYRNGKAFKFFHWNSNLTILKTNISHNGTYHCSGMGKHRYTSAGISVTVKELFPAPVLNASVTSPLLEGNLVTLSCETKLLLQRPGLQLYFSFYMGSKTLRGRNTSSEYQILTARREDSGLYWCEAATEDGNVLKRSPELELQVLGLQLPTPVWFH

[2] = molecular target: T1, FcγRIIb extracellular domain with …; experiment: SPR (Biacore), relative binding, HeCon Ab = 100
[3] = molecular target: T4, FcγRIa extracellular domain with …; experiment: SPR (Biacore); He/Con_1a divided by He/Con_2b (FcγRIa against FcγRIIb)
FcγRIIa R [4] = molecular target: T2, FcγRIIa R; experiment: SPR (Biacore T100); He/Con_2aR divided by He/Con_2b (FcγRIIa R over FcγRIIb)
FcγRIIa R [5] = molecular target: T2, FcγRIIa R; experiment: SPR (Biacore T100), antibody captured on antigen peptide chip, FcγR as analyte; binding relative to GpH7-A5/GpH7-B3/GpL16-k0 = 100
FcγRIIb = molecular target: T3, FcγRIIb; experiment: as above

He/Con_1a [1] | He/Con_2b [2] | He_1a/2b (Ia/IIb) [3] | He_2aR/2b (IIaR/IIb) (FcγRIIa R [4]) | He/Con_2aR (IIaR binding) (FcγRIIa R [5]) | He/Con_2b (IIb binding) (FcγRIIb) | Binder
89.9 % of HeCon Ab (=100) | 35.3 % of HeCon Ab (=100) | 2.55 ratio |  |  |  | GpH7-A5/GpH7-B3 variant G236_03V/GpL16-k0 (He Ab) (antibody, human IgG1, kappa, He Ab: mutation in one H chain only) heavy 1: not shown heavy 2: not shown light: DIVMTQSPLSLPVTPGEPASISCQASESLVHSNRNTYLHWYLQKPGQSPQLLIYKVSNRFSGVPDRFSGSGSGTDFTLKISRVEAEDVGVYYCSQNTHVPPTFGQGTKVEIERTVAAPSVFIFPPSDEQLKSGTASVVCLLNNFYPREAKVQWKVDNALQSGNSQESVTEQDSKDSTYSLSSTLTLSKADYEKHKVYACEVTHQGLSSPVTKSFNRGEC
 |  |  | 1.96 ratio | 48.5 % of control | 24.7 % of control | GpH7-A5/GpH7-B3 variant S239_11K/GpL16-k0 (antibody, human IgG1, kappa, Heterodimerized anti-glypican-3 IgG1; mutation in one H chain only; also called He Ab) heavy 1: not shown heavy 2: not shown light: DIVMTQSPLSLPVTPGEPASISCQASESLVHSNRNTYLHWYLQKPGQSPQLLIYKVSNRFSGVPDRFSGSGSGTDFTLKISRVEAEDVGVYYCSQNTHVPPTFGQGTKVEIERTVAAPSVFIFPPSDEQLKSGTASVVCLLNNFYPREAKVQWKVDNALQSGNSQESVTEQDSKDSTYSLSSTLTLSKADYEKHKVYACEVTHQGLSSPVTKSFNRGEC
 |  |  | 1.4 ratio | 69.2 % of control | 49.4 % of control | GpH7-A5/GpH7-B3 variant S239_16H/GpL16-k0 (antibody, human IgG1, kappa, Heterodimerized anti-glypican-3 IgG1; mutation in one H chain only; also called He Ab) heavy 1: not shown heavy 2: not shown light: DIVMTQSPLSLPVTPGEPASISCQASESLVHSNRNTYLHWYLQKPGQSPQLLIYKVSNRFSGVPDRFSGSGSGTDFTLKISRVEAEDVGVYYCSQNTHVPPTFGQGTKVEIERTVAAPSVFIFPPSDEQLKSGTASVVCLLNNFYPREAKVQWKVDNALQSGNSQESVTEQDSKDSTYSLSSTLTLSKADYEKHKVYACEVTHQGLSSPVTKSFNRGEC
103 % of HeCon Ab (=100) | 80.9 % of HeCon Ab (=100) | 1.27 ratio |  |  |  | GpH7-A5/GpH7-B3 variant L234_07I/GpL16-k0 (He Ab) (antibody, human IgG1, kappa, He Ab: mutation in one H chain only) heavy 1: not shown heavy 2: not shown light: DIVMTQSPLSLPVTPGEPASISCQASESLVHSNRNTYLHWYLQKPGQSPQLLIYKVSNRFSGVPDRFSGSGSGTDFTLKISRVEAEDVGVYYCSQNTHVPPTFGQGTKVEIERTVAAPSVFIFPPSDEQLKSGTASVVCLLNNFYPREAKVQWKVDNALQSGNSQESVTEQDSKDSTYSLSSTLTLSKADYEKHKVYACEVTHQGLSSPVTKSFNRGEC
99.9 % of HeCon Ab (=100) | 72.9 % of HeCon Ab (=100) | 1.37 ratio |  |  |  | GpH7-A5/GpH7-B3 variant L234_05P/GpL16-k0 (He Ab) (antibody, human IgG1, kappa, He Ab: mutation in one H chain only) heavy 1: not shown heavy 2: not shown light: DIVMTQSPLSLPVTPGEPASISCQASESLVHSNRNTYLHWYLQKPGQSPQLLIYKVSNRFSGVPDRFSGSGSGTDFTLKISRVEAEDVGVYYCSQNTHVPPTFGQGTKVEIERTVAAPSVFIFPPSDEQLKSGTASVVCLLNNFYPREAKVQWKVDNALQSGNSQESVTEQDSKDSTYSLSSTLTLSKADYEKHKVYACEVTHQGLSSPVTKSFNRGEC
96.1 % of HeCon Ab (=100) | 50.7 % of HeCon Ab (=100) | 1.9 ratio |  |  |  | GpH7-A5/GpH7-B3 variant L234_01G/GpL16-k0 (He Ab) (antibody, human IgG1, kappa, He Ab: mutation in one H chain only) heavy 1: not shown heavy 2: not shown light: DIVMTQSPLSLPVTPGEPASISCQASESLVHSNRNTYLHWYLQKPGQSPQLLIYKVSNRFSGVPDRFSGSGSGTDFTLKISRVEAEDVGVYYCSQNTHVPPTFGQGTKVEIERTVAAPSVFIFPPSDEQLKSGTASVVCLLNNFYPREAKVQWKVDNALQSGNSQESVTEQDSKDSTYSLSSTLTLSKADYEKHKVYACEVTHQGLSSPVTKSFNRGEC
104 % of HeCon Ab (=100) | 78.5 % of HeCon Ab (=100) | 1.32 ratio |  |  |  | GpH7-A5/GpH7-B3 variant L234_06M/GpL16-k0 (He Ab) (antibody, human IgG1, kappa, He Ab: mutation in one H chain only) heavy 1: not shown heavy 2: not shown light: DIVMTQSPLSLPVTPGEPASISCQASESLVHSNRNTYLHWYLQKPGQSPQLLIYKVSNRFSGVPDRFSGSGSGTDFTLKISRVEAEDVGVYYCSQNTHVPPTFGQGTKVEIERTVAAPSVFIFPPSDEQLKSGTASVVCLLNNFYPREAKVQWKVDNALQSGNSQESVTEQDSKDSTYSLSSTLTLSKADYEKHKVYACEVTHQGLSSPVTKSFNRGEC
 |  |  | 1.26 ratio | 91.9 % of control | 73.2 % of control | GpH7-A5/GpH7-B3 variant P238_18N/GpL16-k0 (antibody, human IgG1, kappa, Heterodimerized anti-glypican-3 IgG1; mutation in one H chain only; also called He Ab) heavy 1: not shown heavy 2: not shown light: DIVMTQSPLSLPVTPGEPASISCQASESLVHSNRNTYLHWYLQKPGQSPQLLIYKVSNRFSGVPDRFSGSGSGTDFTLKISRVEAEDVGVYYCSQNTHVPPTFGQGTKVEIERTVAAPSVFIFPPSDEQLKSGTASVVCLLNNFYPREAKVQWKVDNALQSGNSQESVTEQDSKDSTYSLSSTLTLSKADYEKHKVYACEVTHQGLSSPVTKSFNRGEC
